Results: the supplement of paper PMC9732359
± gives the uncertainty stated by the source.

Assay: protein stability index of a GFP-peptide fusion (yeast GPS) (PSI 1-4); higher = more stable; sorted into four equal gates, so the index is relative within each strain
In short: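 Mid-log yeast cultures in leucine-free medium, carrying a pooled plasmid library, were sorted into four equal gates by their GFP/Cherry fluorescence ratio. Each plasmid expressed Cherry along with GFP fused upstream of a tiled 17-residue yeast protein peptide. Plasmids recovered from each gate were PCR-amplified and Illumina-sequenced, with reads assigned to strains by barcodes. The protein stability index was obtained by summing each gate's read frequency weighted by its gate number.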

Row | Sequence | protein stability index (doa10∆) | protein stability index (pdr5∆) | protein stability index (san1∆) | protein stability index (ubr1∆)
1 | NNSLSYHSGRLLIQGPK [ITC1] | 2.45 ± 0.054 | 2.3 ± 0.048 | 2.47 ± 0.062 | 2.93 ± 0.051
2 | ENEVSDIDVTIVSKEYE [ESC2] | 3.08 ± 0.13 | 2.19 ± 0.098 | 3.09 ± 0.081 | 1.96 ± 0.066
3 | VSRGQSAVLLETTLGEM [PRP8] | 2.13 ± 0.12 | 2.36 ± 0.15 | – | –
4 | VALPPGSNYNPYFPGGS [CYT1] | 2.32 ± 0.058 | 2.81 ± 0.064 | 2.65 ± 0.067 | 2.64 ± 0.036
5 | QPAQPRESRIVSTEGNV [RPL21A] | 2.49 ± 0.07 | 2.83 ± 0.074 | 3.04 ± 0.069 | 2.87 ± 0.086
6 | HVVGRIAEVGNKRWKVD [RRP4] | – | 3 ± 0.17 | 2.89 ± 0.16 | 2.67 ± 0.082
7 | QVLFQGLIYSFNEENGE [POP1] | 3.1 ± 0.13 | 3.24 ± 0.18 | 2.77 ± 0.26 | 3.02 ± 0.18
8 | ISIYNMLPPKSVKFTHI [SSN2] | 1.64 ± 0.069 | 1.76 ± 0.057 | 2.13 ± 0.066 | 2.29 ± 0.034
9 | SRPATTTRNGFMEAQGA [FAS2] | 2.28 ± 0.049 | 2.18 ± 0.046 | 2.48 ± 0.065 | 2.21 ± 0.039
10 | NANQQFLPFNNSASNNG [SWI1] | 3 ± 0.052 | 2.97 ± 0.052 | 2.96 ± 0.042 | 3.02 ± 0.06
11 | KQDCVDWFTYSYFYRRI [BRR2] | 1.69 ± 0.036 | 1.32 ± 0.032 | 1.51 ± 0.053 | 1.41 ± 0.029
12 | IKIGIRVMKSLSINEKD [YCG1] | 1.49 ± 0.087 | 1.61 ± 0.061 | 1.36 ± 0.2 | 1.56 ± 0.091
13 | AACEKLLPPIKIELIKN [RPN12] | 1.98 ± 0.19 | 2.25 ± 0.094 | 2.44 ± 0.098 | 1.99 ± 0.072
14 | KKVASANATAAESDVAK [RPL16A] | 3.08 ± 0.054 | 3.04 ± 0.065 | 3.1 ± 0.036 | 3.02 ± 0.038
15 | PSILEDSLENNEGVPSP [FAS1] | 3.29 ± 0.23 | 2.79 ± 0.22 | 3.22 ± 0.17 | 3.14 ± 0.2
16 | DSEERDPKLEKCLNYRN [ITC1] | 2.85 ± 0.07 | 2.74 ± 0.088 | 2.71 ± 0.061 | 2.49 ± 0.038
17 | DKHLYHVLYKESKGNAF [RPL19A] | 3.56 ± 0.16 | 3.39 ± 0.089 | 2.96 ± 0.11 | 2.77 ± 0.084
18 | LYYRPHINKKSQLDLFL [GRR1] | 1.78 ± 0.071 | 2.17 ± 0.12 | 1.28 ± 0.1 | 1.85 ± 0.093
19 | AIVLPMKRADKFKDMGI [RPT5] | 2.39 ± 0.096 | 3.11 ± 0.24 | 3.09 ± 0.17 | 3.09 ± 0.16
20 | LYVDSESTSSTEEVEAL [MTW1] | 2.92 ± 0.11 | 3.76 ± 0.15 | 3.14 ± 0.19 | 3.24 ± 0.11
21 | GCENPADVFRRCLVAVI [SRP72] | 1.93 ± 0.055 | 1.48 ± 0.048 | 2.29 ± 0.088 | 1.98 ± 0.077
22 | VNLSEVMTVPGIDPTRI [RPO21] | 2.92 ± 0.083 | 3.07 ± 0.094 | 3.11 ± 0.05 | 3.05 ± 0.064
23 | TNGKPDMAILERYYELA [ARP7] | 3.23 ± 0.088 | 3.1 ± 0.097 | 3.01 ± 0.075 | 3.19 ± 0.06
24 | RVKDPQWLIMLGICTHL [RIP1] | 2.62 ± 0.064 | 2.48 ± 0.055 | 2.36 ± 0.075 | 2.91 ± 0.045
25 | GQSSVKHEDFVEGISEV [RPT5] | 3.7 ± 0.24 | – | – | 3.41 ± 0.2
26 | GPSATDPETTATQKESL [RGR1] | 2.43 ± 0.062 | 2.87 ± 0.071 | 1.66 ± 0.11 | 2.21 ± 0.048
27 | NAARKAEASGEAADEAD [RPS9A] | 3.29 ± 0.24 | 3.03 ± 0.29 | – | 3.47 ± 0.11

Row | Sequence | protein stability index (doa10∆) | protein stability index (pdr5∆) | protein stability index (san1∆) | protein stability index (ubr1∆)
28 | FKQSNSETFLQFYVKRW [CDC53] | 2.93 ± 0.13 | 2.96 ± 0.071 | 2.96 ± 0.097 | 2.76 ± 0.1
29 | LIIVTRKNYMHVKNFGF [YML031W/NDC1] | 1.22 ± 0.042 | 1.52 ± 0.048 | 1.51 ± 0.1 | 1.87 ± 0.04
30 | QELQIKRDVLDDLYRKL [CSE2] | 2.27 ± 0.14 | 2.19 ± 0.15 | – | –
31 | IRRTFNIVNDFTPEEEA [SKP1] | 2.71 ± 0.099 | 3.28 ± 0.05 | 3.16 ± 0.05 | 3.08 ± 0.041
32 | YRLDIIESALKSKLDQD [RPN2] | 1.66 ± 0.093 | 1.96 ± 0.12 | 1.99 ± 0.16 | 1.94 ± 0.19
33 | TVYSSEQYIQELDKRED [SMC3] | 2.76 ± 0.18 | 3.26 ± 0.24 | – | 3.47 ± 0.25
34 | NNESSDDMDIDEVNDRS [PCI8] | 3.09 ± 0.086 | 3.17 ± 0.072 | 3.05 ± 0.061 | 3.09 ± 0.081
35 | SAVIIDEFKDITKEVTQ [YIL149C/MLP2] | 2.76 ± 0.088 | 2.89 ± 0.059 | 2.39 ± 0.06 | 2.8 ± 0.068
36 | FLGYKAGMTTIVRDLDR [RPL3] | 2.48 ± 0.12 | 3.17 ± 0.18 | 2.93 ± 0.078 | 3.14 ± 0.1
37 | KIPLFTFAKSKNYSRPS [SIR4] | 2.39 ± 0.092 | 2.12 ± 0.081 | 1.74 ± 0.1 | 2.42 ± 0.064
38 | GKKSSSSTKDYLTPPHE [RET1] | 3.72 ± 0.27 | – | 3.52 ± 0.22 | 2.85 ± 0.18
39 | VKEEYDIWQSRDQGNDS [YIL149C/MLP2] | – | 3.5 ± 0.19 | 3.33 ± 0.074 | 3.34 ± 0.11
40 | EESIRESLQKRELLKSQ [SIR3] | 3.13 ± 0.063 | 3.32 ± 0.068 | 3 ± 0.056 | 3.12 ± 0.059
41 | HLSHPGTNKDMILKLVC [ECM29] | 1.52 ± 0.049 | 1.45 ± 0.035 | 1.32 ± 0.09 | 1.91 ± 0.045
42 | YDSDSDSSVEDSTDNEN [LIN1] | 3.08 ± 0.071 | 2.95 ± 0.1 | 2.91 ± 0.12 | 3.1 ± 0.042
43 | DDFEEDEDEEDDDDYNA [RPC31] | – | 3.31 ± 0.12 | 3.2 ± 0.09 | 3.46 ± 0.29
44 | NTSAIQETASPLSQDEL [YIL149C/MLP2] | 1.23 ± 0.09 | 1.39 ± 0.091 | 1.19 ± 0.17 | 1.25 ± 0.077
45 | DFKTDVDEPMTSAVELG [YJL039C/NUP192] | 2.17 ± 0.073 | 2.28 ± 0.068 | 2.54 ± 0.13 | 2.85 ± 0.06
46 | DENGTNSAIANEQEEKS [RPC37] | 2.65 ± 0.083 | 2.83 ± 0.1 | 2.74 ± 0.047 | 3.07 ± 0.051
47 | ARNVQVHQEPYVFNARP [RPS0A] | 3.01 ± 0.098 | 3.25 ± 0.063 | 2.99 ± 0.051 | 3.06 ± 0.063
48 | LTVIEKLDSKKILPTDI [SRP68] | 2.71 ± 0.13 | 3 ± 0.12 | 2.95 ± 0.1 | 2.71 ± 0.061
49 | PNLLFSMCGFEVRILPR [PRP8] | 2.41 ± 0.051 | 1.9 ± 0.047 | 2.25 ± 0.055 | 2.27 ± 0.046
50 | DNIDEKVVKAIRIYFTE [NUT1] | 3.12 ± 0.092 | 3 ± 0.061 | 3.04 ± 0.048 | 2.39 ± 0.036
51 | FITFSLDDWISIGYETE [IRR1] | 2.56 ± 0.078 | 2.61 ± 0.088 | 2.65 ± 0.084 | 2.6 ± 0.071
52 | SVARVEDHDVHSNESSN [IRR1] | 2.7 ± 0.059 | 2.99 ± 0.061 | 3.01 ± 0.052 | 2.81 ± 0.058
53 | TETLTSKKIVPSPKKVA [SIR4] | 2.77 ± 0.089 | 2.87 ± 0.083 | 2.63 ± 0.066 | 2.55 ± 0.12
